Test results taken from US20130136691A1 (BRACCO IMAGING S P A, published 2013).

B1: N,N-dimethylglycine-Ser-Cys(Acm)-Gly-SR-QWAVGHLM-NH2 (peptide)
peptide: QWAVGHLM
modifications: N-term: N,N-dimethylglycine-Ser-Cys(Acm)-Gly-Ser-Arg; C-term amide
B2: N,N-dimethylglycine-Ser-Cys(Acm)-Gly-KE-QWAVGHLM-NH2 (peptide)
peptide: QWAVGHLM
modifications: N-term: N,N-dimethylglycine-Ser-Cys(Acm)-Gly-Lys-Glu; C-term amide
B3: N,N-dimethylglycine-Ser-Cys(Acm)-Gly-SK-QWAVGHLM-NH2 (peptide)
peptide: QWAVGHLM
modifications: N-term: N,N-dimethylglycine-Ser-Cys(Acm)-Gly-Ser-Lys; C-term amide

Assays:
[1] = target: T1, neuromedin-B preferring receptor (NMB-R) on C6 rodent glioblastoma cells (rodent, UniProt P24053 1-390, limits assumed); experiment: 125I-NMB competition, C6 cells
T1 construct: whole, on cells; also called C6/NMB-R
T1 sequence (looked up): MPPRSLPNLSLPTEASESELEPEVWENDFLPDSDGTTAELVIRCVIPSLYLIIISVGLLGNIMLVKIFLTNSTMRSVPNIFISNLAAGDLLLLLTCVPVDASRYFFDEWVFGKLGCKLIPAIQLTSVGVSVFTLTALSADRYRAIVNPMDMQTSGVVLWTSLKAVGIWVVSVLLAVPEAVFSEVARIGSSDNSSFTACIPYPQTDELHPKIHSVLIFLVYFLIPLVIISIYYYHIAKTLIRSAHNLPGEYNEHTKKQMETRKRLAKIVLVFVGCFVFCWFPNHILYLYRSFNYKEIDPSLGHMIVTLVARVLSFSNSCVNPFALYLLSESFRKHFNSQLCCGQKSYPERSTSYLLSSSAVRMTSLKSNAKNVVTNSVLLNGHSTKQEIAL

[2] = target: T2, gastrin releasing peptide receptor (GRP-R) (human, UniProt P30550 1-384); experiment: 125I-BBN competition, PC3 cells
T2 construct: whole, on cells; also called GRP receptor; BB2
T2 sequence (P30550 whole entry): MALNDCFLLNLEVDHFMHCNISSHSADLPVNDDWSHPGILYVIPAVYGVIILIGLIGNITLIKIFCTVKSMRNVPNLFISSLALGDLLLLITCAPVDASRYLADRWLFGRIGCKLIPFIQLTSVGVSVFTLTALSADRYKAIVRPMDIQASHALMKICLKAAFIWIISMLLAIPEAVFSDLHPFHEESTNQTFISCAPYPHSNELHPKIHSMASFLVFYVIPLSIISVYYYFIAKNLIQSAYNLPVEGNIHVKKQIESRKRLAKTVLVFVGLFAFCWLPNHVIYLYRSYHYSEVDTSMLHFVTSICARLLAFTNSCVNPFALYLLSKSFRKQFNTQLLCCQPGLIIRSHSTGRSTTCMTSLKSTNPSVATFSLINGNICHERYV

| Binder | IC50 [1] | IC50 [2] |
| --- | --- | --- |
| B1 | 2 nM |  |
| B2 | 60 nM |  |
| B3 |  | 2 nM |
